US20190194358A1 (ARIZONA BOARD OF REGENTS A BODY CORPORATE OF THE STATE OF …, published 2019)
Ends that are not written are not given here.

What was measured:
albumin = experiment: SPR
transferrin [1] = target: T1, transferrin (human, UniProt P02787 20-698); experiment: SPR (Biacore A-100), purified peptide at several concentrations, equilibrium
T1 construct: also called TRF; pooled human transferrin (Sigma)
Source text: A Biacore A-100 Surface Plasmon Resonance (SPR) system was used to measure the binding response of each peptide to several different target proteins immobilized on a gold surface. The A-100 has four different flow cells and within each flow cell are five addressable spots. Therefore four different proteins and a negative control reference can be used per flow cell. […] Sensorgrams are collected from each immobilized protein, so a binding profile for each analyte versus each of the protein targets is generated for each injection. Target proteins were immobilized using a biotin capture approach in which a CM5 chip was activated using standard amine coupling chemistry and Neutravidin was covalently coupled to the chip. Each biotinylated protein was injected over a single spot and the amount of protein captured was measured. In this manner four proteins were immobilized per flow cell. In this example, the same four proteins were captured in all four flow cells for this experiment.

transferrin [2] = target: T1, transferrin; experiment: SPR, transferrin immobilised, Kd from kinetics
Source text: Flow rates and contact times are adjusted as necessary to provide the surface concentration of target desired for the intended application, and may vary by target. In general, for evaluating whether binding occurs, it is preferable to immobilize a relatively large quantity of target, and higher flow rates and/or longer contact times may be used. For determining kinetics, it is preferable to limit the amount of target immobilized so as to minimize rebinding and avidity effects, and lower flow rates and/or contact times may be used.

T1 sequence (P02787 20-698 limits assumed): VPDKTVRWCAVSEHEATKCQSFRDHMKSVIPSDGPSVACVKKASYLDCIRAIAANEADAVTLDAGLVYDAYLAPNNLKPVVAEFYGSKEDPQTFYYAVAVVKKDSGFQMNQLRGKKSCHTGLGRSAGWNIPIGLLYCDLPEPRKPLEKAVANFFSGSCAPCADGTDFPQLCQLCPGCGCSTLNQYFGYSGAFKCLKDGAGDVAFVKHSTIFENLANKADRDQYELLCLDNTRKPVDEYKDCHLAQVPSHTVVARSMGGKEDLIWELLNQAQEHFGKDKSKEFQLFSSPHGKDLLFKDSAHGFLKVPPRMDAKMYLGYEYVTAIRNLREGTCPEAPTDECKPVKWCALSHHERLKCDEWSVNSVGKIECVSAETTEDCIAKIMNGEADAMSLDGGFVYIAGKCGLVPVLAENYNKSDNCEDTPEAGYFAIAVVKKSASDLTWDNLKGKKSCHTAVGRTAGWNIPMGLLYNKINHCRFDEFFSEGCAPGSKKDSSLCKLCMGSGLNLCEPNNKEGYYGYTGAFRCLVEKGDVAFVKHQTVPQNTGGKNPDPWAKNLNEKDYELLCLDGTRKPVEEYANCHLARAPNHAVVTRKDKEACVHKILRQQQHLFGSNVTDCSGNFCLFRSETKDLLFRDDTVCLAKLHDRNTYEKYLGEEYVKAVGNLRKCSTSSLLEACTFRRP

B1: linker-optimized BP1/BP2 DNA-linked synbody (BP1 on the template strand, BP2 at position 13 from the 3' end of the variable strand) (designed binder)
peptide 1: GTEKGTSGWLKTGSC
peptide 2: EGEWTEGKLSLRGSC
modifications: not fully specified (some residues); cysteine pairing not given here; also: DNA strands hybridised
notes: The two peptide-DNA conjugates are held together by hybridisation of the DNA strands; also called Gal80 synbody; BP1-BP2 containing synbody
With B1 the “Kd relative to the Kd for gal80 (fold)” value (albumin) was over 1000 fold.

B2: TRF101 (peptide)
peptide: ARDLLIQKNSGQDVDHRGSC
notes: Screened unpurified, then resynthesised and HPLC purified
Work on B2 yielded a Kd (transferrin [1]) of 78.9 µM.

B3: synbody comprising TRF-26 and TRF-23 (Example 9, lysine-linked) (designed binder)
peptide 1: AHKVVPQRQIRHAYNRYGSG
peptide 2: FRGWAHIFFGPHVIYRGGSG
modifications: not fully specified (bridges); also: C-termini joined to alpha or epsilon amines of branching Lys, orientation not given here, followed by C-terminal Cys, Gly or Ala, not given here which
notes: probably the same construct family as SYN23-26
B3 showed a Kd (transferrin [2]) of 0.15 µM.
